This note sets out measurements from US20230165970A1, “COMPOSITIONS AND METHODS FOR THE TREATMENT OF BACTERIAL INFECTIONS” (priority 2017, published 2023).

Common to all, as to experiment: MIC assay (broth microdilution, RPMI + 5% LB)
Format in all cases: cell-based
(In general: Dilution methods test growth across graded concentrations, often in twofold steps.)

In assay [1] the test system is Escherichia coli BW25113 + pUC18-mcr-1. The conditions noted are these: assay media RPMI A. An excerpt:
An mcr-1 expression plasmid was constructed (GenScript; Piscataway, N.J.) using the pUC18 high copy number plasmid (Yanisch-Perron, et al., 1985). A 1649-bp fragment was synthesized containing, in order from 5′ to 3′: EcoR1 restriction site (5′-GAATTC-3), a ribosomal binding site (5′-AGGAGG-3′), a 5-bp native start codon upstream sequence (5′-TTCTC-3′) from the mcr-1-bearing plasmid pHNSHP45 (Liu, Y Y, et al., 2015; GenBank Accession #KP347127), the 1626-bp mcr-1 open reading frame with stop codon (“orf00073” of GenBank Accession #KP347127), and finally an Xba1 restriction site sequence (5′-TCTAGA-3′). […] The pUC18-mcr-1 plasmid was transformed into chemically-competent E. coli BW25113 (Coli Genetic Stock Center #7636) as described previously (Chung, et al., PNAS. 1989), recovered for 1 h shaking at 37° C. in Super Optimal broth with Catabolite repression (SOC) media and then aliquots were plated on Luria-Bertani (LB) media containing 100 μg/mL of carbenicillin. Putative transformant colonies were then verified in MIC assays.
(§1) Bacterial strains were stored as glycerol stocks at −80° C. prior to culturing on cation-adjusted Mueller-Hinton agar (MHA; BD cat. no. 211438) at 37° C. Antibacterial activity was assessed against a panel consisting of Escherichia coli, Acinetobacter baumannii, Pseudomonas aeruginosa, and Klebsiella pneumoniae strains (see Table 2).
Briefly, stock solutions of all antibacterial agents were prepared fresh in appropriate solvents (i.e. PBS, pH 7.4. DMSO, DI, etc.). Stock concentrations were made at 50× the highest final assay concentration and serially diluted 2-fold, 8 or 12 times in a 96-well PCR plate (VWR cat. no. 83007-374). Bacterial cell suspensions generated from MHA plate cultures were prepared in 0.85% saline and adjusted to ˜0.1 OD600 nm. […] Later, conjugates 16 and 17, and 20-25 were evaluated in RPMI 1640 medium (+) L-glutamine, (+) sodium bicarbonate, pH 7.4 (“RPMI B”; Gibco, cat. no. 11875-085) as has been described as a more physiologically-relevant media for susceptibility testing of antibacterial compounds. […]

Assay [2] deals with Acinetobacter baumannii AB5075. The conditions noted are these: assay media RPMI A. The protocol:
as §1
(§2) Briefly, stock solutions of all antibacterial agents were prepared fresh in appropriate solvents (i.e. PBS, pH 7.4. DMSO, DI, etc.). Stock concentrations were made at 50× the highest final assay concentration and serially diluted 2-fold, 8 or 12 times in a 96-well PCR plate (VWR cat. no. 83007-374). Bacterial cell suspensions generated from MHA plate cultures were prepared in 0.85% saline and adjusted to ˜0.1 OD600 nm. […] Dorschner R A et al., The mammalian ionic environment dictates microbial susceptibility to antimicrobial defense peptides. FASEB J. 20(1):35-42 (2017). Ninety-eight microliters of each cell suspension in MHB were added to test wells in a 96-well assay plate (Costar cat. no. 3370). A Beckman Multimek 96 liquid handling robot was used to dispense 2 μL of each 50× stock compound into the plate containing 98 μL of each strain in MHB (2% final solvent concentration). E. coli strains BW25113 and ATCC 25922 were run in the presence and absence of 50% heat-inactivated fetal bovine serum (FBS; Sigma, cat. no. F4135-100 mL). Plates were mixed by shaking then incubated at 37° C. overnight (16-20 h).

The test system of assay [3] is Acinetobacter baumannii ATCC 19606. The conditions noted are these: assay media RPMI A. The protocol:
as §1, §2

Assay [4] concerns Escherichia coli ATCC BAA-2469. The conditions noted are these: assay media RPMI A. As to the method: as §1, §2
The test system of assay [5] is Escherichia coli ATCC 25922. The conditions noted are these: assay media RPMI A; for MIC Ec 25922 + FBS: 50% heat-inactivated FBS.
A further assay concerns Escherichia coli BW25113. The conditions noted are these: assay media RPMI A; for MIC Ec BW + FBS: 50% heat-inactivated FBS.
Assay [6] deals with Pseudomonas aeruginosa PAO1. The conditions noted are these: assay media RPMI A. The protocol: as §1
(§3) Briefly, stock solutions of all antibacterial agents were prepared fresh in appropriate solvents (i.e. PBS, pH 7.4. DMSO, DI, etc.). Stock concentrations were made at 50× the highest final assay concentration and serially diluted 2-fold, 8 or 12 times in a 96-well PCR plate (VWR cat. no. 83007-374). Bacterial cell suspensions generated from MHA plate cultures were prepared in 0.85% saline and adjusted to ˜0.1 OD600 nm. Next, cell suspensions were diluted 1:200 in RPMI containing 5% Luria Broth (LB) to improve bacterial growth (BD Difco, cat. no. 244620) to a concentration of ˜5×10^5 CFU (colony-forming units)/mL. […] Later, conjugates 16 and 17, and 20-25 were evaluated in RPMI 1640 medium (+) L-glutamine, (+) sodium bicarbonate, pH 7.4 (“RPMI B”; Gibco, cat. no. 11875-085) as has been described as a more physiologically-relevant media for susceptibility testing of antibacterial compounds. Dorschner R A et al., The mammalian ionic environment dictates microbial susceptibility to antimicrobial defense peptides. FASEB J. 20(1):35-42 […]. Ninety-eight microliters of each cell suspension in MHB were added to test wells in a 96-well assay plate (Costar cat. no. 3370). A Beckman Multimek 96 liquid handling robot was used to dispense 2 μL of each 50× stock compound into the plate containing 98 μL of each strain in MHB (2% final solvent concentration). E. coli strains BW25113 and ATCC 25922 were run in the presence and absence of 50% heat-inactivated fetal bovine serum (FBS; Sigma, cat. no. F4135-100 mL). Plates were mixed by shaking then incubated at 37° C. overnight (16-20 h).

Assay [7] concerns Escherichia coli BW25113 4X-12 (COL-R; PmrB-Leu10Pro). The conditions noted are these: assay media RPMI A. The protocol:
as §1, §3

Assay [8] has as its system Pseudomonas aeruginosa ATCC 27853. The conditions noted are these: assay media RPMI A. The protocol:
as §1, §3

Assay [9] relates to Acinetobacter baumannii ATCC 17978. The conditions noted are these: assay media RPMI A. The protocol:
as §1, §3

B1: Conjugate 4 (conjugate)
chain: PRGPTIKPCPPCKCPAPNLLGGPSVFIFPPKIKDVLMISLSPIVTCVVVDVSEDDPDVQISWFVNNVEVHTAQTQTHREDYNSTLRVVSALPIQHQDWMSGKEFKCKVNNKDLPAPIERTISKPKGSVRAPQVYVLPPPEEEMTKKQVTLTCMVTDFMPEDIYVEWTNNGKTELNYKNTEPVLDSDGSYFMYSKLRVEKKNWVERNSYSCSVVHEGLHNHHTTKSFSRTPGKHHHHHH
modifications: cyclised or stapled
Take B1: the “MIC Ec BW (mcr-1)” value in [1] was >128 µg/mL. Besides, in assay [2], the “MIC Ab AB5075” value was found to be 32 µg/mL. For the same molecule, the “MIC Ab 19606” value in [3] was found to be 32 µg/mL. Further, the “MIC Ec 2469” value in assay [4] was >128 µg/mL. Moreover, in [5], the “MIC Ec 25922” value was >128 µg/mL and the “MIC Ec 25922 + FBS” value is 64 µg/mL. Further, in the assay with Escherichia coli BW25113, the “MIC Ec BW” value was found to be 32 µg/mL and the “MIC Ec BW + FBS” value came to 32 µg/mL. Moreover, the “MIC Pa PAO1” value in assay [6] was found to be 16 µg/mL. For the same molecule, the “MIC Ec BW 4X-12 (COL-R)” value in assay [7] is >128 µg/mL.

B2: Conjugate 15 (conjugate)
chain: B1 chain
modifications: cyclised or stapled
In the case of B2, the “MIC Ec BW (mcr-1)” value in [1] was >128 µg/mL. Moreover, the “MIC Ab AB5075” value in assay [2] was >128 µg/mL. Also, the “MIC Ab 19606” value in [3] was >128 µg/mL. In addition, the “MIC Ec 2469” value in assay [4] is >128 µg/mL. In assay [5], the “MIC Ec 25922” value was >128 µg/mL and the “MIC Ec 25922 + FBS” value is >128 µg/mL. Also, in the assay on Escherichia coli BW25113, the “MIC Ec BW” value was >128 µg/mL and the “MIC Ec BW + FBS” value was >128 µg/mL. For the same molecule, the “MIC Pa PAO1” value in assay [6] amounted to 16 µg/mL. In assay [7], the “MIC Ec BW 4X-12 (COL-R)” value was >128 µg/mL.

B3: Conjugate 26: "Conjugate of m-IgG2a(His)6 Fc-3 (Int-13)"; SEQ ID NO: 6, procedure uses Int-10, DAR=2/Fc dimer (conjugate)
chain: B1 chain
modifications: conjugated small molecule Int-13, DAR 2
Turning to B3, in assay [1], the “MIC Ec BW (mcr-1)” value is >128 µg/mL. Besides, the “MIC Ab AB5075” value in assay [2] came out at 32 µg/mL. Besides, the “MIC Ab 19606” value in assay [3] is 128 µg/mL. In addition, the “MIC Ec 2469” value in assay [4] is 32 µg/mL. In assay [5], the “MIC Ec 25922” value was >128 µg/mL and the “MIC Ec 25922 + FBS” value is 128 µg/mL. Besides, in the assay on Escherichia coli BW25113, the “MIC Ec BW” value stood at 16 µg/mL and the “MIC Ec BW + FBS” value is 32 µg/mL. Further, the “MIC Pa PAO1” value in [6] amounted to 64 µg/mL. In assay [8], the “MIC Pa 27853” value worked out at 16 µg/mL. The “MIC Ab 17978” value in [9] was 64 µg/mL. Further, the “MIC Ec BW 4X-12 (COL-R)” value in assay [7] was >128 µg/mL.
